Experimental findings from patent publication US20260265381A1 (Hoffmann-La Roche, published 2026) are described below.

The target of experiment [1] is T1, recombinant single-chain HLA-G monomer/human HLA-G β2M MHC class I complex (human).
T1 construct: also called wt-HLA-G complex; wt-HLA-G antigen
Kind of experiment: SPR single cycle kinetics (Biacore T200, 25 C); antibody captured via Fc on CM3 chip, HLA-G complex as analyte.

Experiment [2] addresses T2, human CD3 expressed on cells (Jurkat NFAT reporter cells; human T cells isolated from PBMCs) (human, UniProt P07766 23-207).
T2 construct: on cells it is part of the CD3/TCR complex; also called CD3 on Jurkat cells; CD3 expressed on T-cells
Kind of experiment: flow cytometry on human T cells isolated from PBMCs; detection with Alexa Fluor 488 anti-human IgG.

Experiment [3] deals with T3, human HLA-G expressed on cells (JEG3 cells, natural; SKOV3 cells transfected with recombinant HLA-G) (human, UniProt P17693 25-338).
T3 construct: also called SKOV3 HLA-G
Kind of experiment: flow cytometry, cell binding on SKOV3 HLA-G cells.

In experiment [4] the target is T3, human HLA-G expressed on cells (JEG3 …). Kind of experiment: cell-based or functional assay.
The target is the same in experiment [5]. The experiment can be described thus: cell-based or functional assay. The source holds these as a separate data set.
Experiment [6] has the same target. The experiment can be described thus: flow cytometry, cell binding on JEG3 cells.

T2 sequence (P07766 23-207 limits assumed): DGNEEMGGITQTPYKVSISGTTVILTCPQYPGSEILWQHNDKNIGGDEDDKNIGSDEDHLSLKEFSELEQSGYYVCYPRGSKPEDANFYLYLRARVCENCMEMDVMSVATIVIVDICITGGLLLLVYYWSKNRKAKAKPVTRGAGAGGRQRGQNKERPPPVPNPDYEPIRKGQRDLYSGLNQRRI

B1: HLA-G-0090-VL-N31D (antibody, IgG1, V domains shown)
VH: QVQLQQSGPGLLKPSQTLSLTCAISGDSVSSNRAAWNWIRQSPSRGLEWLGRTYYRSKWYNDYAVSVQGRITLIPDTSKNQFSLRLNSVTPEDTAVYYCASVRAVAPFDYWGQGVLVTVSS
VL: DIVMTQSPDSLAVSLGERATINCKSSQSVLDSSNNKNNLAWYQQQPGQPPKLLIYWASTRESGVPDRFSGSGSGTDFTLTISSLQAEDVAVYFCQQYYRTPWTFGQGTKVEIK
notes: also called HLA-G-0090-N31D
In the case of B1, in experiment [1], the Kd was 20.2 nM, the koff was 0.00391 s⁻¹, the kon came out at 194000 M⁻¹ s⁻¹ and the t½ came out at 2.96 min.

B2: HLA-G-0090-VL-N31Y (antibody, IgG1, V domains shown)
VH: QVQLQQSGPGLLKPSQTLSLTCAISGDSVSSNRAAWNWIRQSPSRGLEWLGRTYYRSKWYNDYAVSVQGRITLIPDTSKNQFSLRLNSVTPEDTAVYYCASVRAVAPFDYWGQGVLVTVSS
VL: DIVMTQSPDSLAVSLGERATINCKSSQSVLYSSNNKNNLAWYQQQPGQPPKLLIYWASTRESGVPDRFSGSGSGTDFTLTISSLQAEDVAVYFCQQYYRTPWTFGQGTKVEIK
notes: also called HLA-G-0090-N31Y
Take B2: in experiment [1], the Kd was determined as 2 nM, the koff came out at 0.00107 s⁻¹, the on-rate (kon) was determined as 549000 M⁻¹ s⁻¹ and the t½ stood at 10.8 min.

B3: HLA-G-0090-VL-N31Q (antibody, IgG1, V domains shown)
VH: QVQLQQSGPGLLKPSQTLSLTCAISGDSVSSNRAAWNWIRQSPSRGLEWLGRTYYRSKWYNDYAVSVQGRITLIPDTSKNQFSLRLNSVTPEDTAVYYCASVRAVAPFDYWGQGVLVTVSS
VL: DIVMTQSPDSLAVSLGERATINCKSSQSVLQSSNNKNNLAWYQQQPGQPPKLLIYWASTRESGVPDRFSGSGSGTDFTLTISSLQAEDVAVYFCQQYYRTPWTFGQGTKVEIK
notes: also called HLA-G-0090-N31Q
Regarding B3, in experiment [1], the Kd turned out to be 2 nM, the koff turned out to be 0.00373 s⁻¹, the association rate constant (kon) turned out to be 1.91e+06 M⁻¹ s⁻¹ and the t½ is 3.1 min.

B4: HLA-G-0090-VL-N31L (antibody, IgG1, V domains shown)
VH: QVQLQQSGPGLLKPSQTLSLTCAISGDSVSSNRAAWNWIRQSPSRGLEWLGRTYYRSKWYNDYAVSVQGRITLIPDTSKNQFSLRLNSVTPEDTAVYYCASVRAVAPFDYWGQGVLVTVSS
VL: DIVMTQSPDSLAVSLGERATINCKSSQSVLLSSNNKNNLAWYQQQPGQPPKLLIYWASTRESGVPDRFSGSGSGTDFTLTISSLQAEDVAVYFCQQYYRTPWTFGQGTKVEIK
notes: also called HLA-G-0090-N31L
As to B4, in experiment [1], the Kd turned out to be 1.7 nM, the koff turned out to be 0.00871 s⁻¹, the kon came to 5.28e+06 M⁻¹ s⁻¹ and the t½ was determined as 1.33 min.

B5: HLA-G-0090-VL-N31S (antibody, IgG1, V domains shown)
VH: QVQLQQSGPGLLKPSQTLSLTCAISGDSVSSNRAAWNWIRQSPSRGLEWLGRTYYRSKWYNDYAVSVQGRITLIPDTSKNQFSLRLNSVTPEDTAVYYCASVRAVAPFDYWGQGVLVTVSS
VL: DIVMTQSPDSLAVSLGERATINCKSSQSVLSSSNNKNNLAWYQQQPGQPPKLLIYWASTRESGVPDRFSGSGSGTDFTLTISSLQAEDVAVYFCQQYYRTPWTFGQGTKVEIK
notes: also called HLA-G-0090-N31S
With B5, in experiment [1], the Kd was found to be 2.4 nM, the koff stood at 0.000922 s⁻¹, the kon turned out to be 383000 M⁻¹ s⁻¹ and the t½ came out at 12.5 min.

B6: HLA-G-0090-VL-N31Y-N38Y (antibody, IgG1, V domains shown)
VH: QVQLQQSGPGLLKPSQTLSLTCAISGDSVSSNRAAWNWIRQSPSRGLEWLGRTYYRSKWYNDYAVSVQGRITLIPDTSKNQFSLRLNSVTPEDTAVYYCASVRAVAPFDYWGQGVLVTVSS
VL: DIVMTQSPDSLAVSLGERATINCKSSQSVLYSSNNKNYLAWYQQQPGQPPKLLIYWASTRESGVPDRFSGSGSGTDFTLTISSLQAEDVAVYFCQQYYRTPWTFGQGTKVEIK
notes: also called HLA-G-0090-VL-N31Y-N38Y-GL; HLA-G-0090-N31Y-N38Y
For B6, in experiment [1], the Kd was 23.6 nM and the t½ is 0 min.

B7: HLA-G-0090-VL-N31T (antibody, IgG1, V domains shown)
VH: QVQLQQSGPGLLKPSQTLSLTCAISGDSVSSNRAAWNWIRQSPSRGLEWLGRTYYRSKWYNDYAVSVQGRITLIPDTSKNQFSLRLNSVTPEDTAVYYCASVRAVAPFDYWGQGVLVTVSS
VL: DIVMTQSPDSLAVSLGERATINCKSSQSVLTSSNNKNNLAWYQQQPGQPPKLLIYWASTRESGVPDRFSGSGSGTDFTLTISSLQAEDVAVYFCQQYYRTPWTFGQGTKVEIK
notes: also called HLA-G-0090-N31T
B7: in experiment [1], the Kd amounted to 2.3 nM, the dissociation rate constant (koff) stood at 0.000769 s⁻¹, the kon came to 342000 M⁻¹ s⁻¹ and the t½ was found to be 15 min.

B8: P1AF7977 (HLA-G-0090-VL-S32P/CD3 P035-093 (P035)) (bispecific antibody, human IgG1, kappa, L234A L235A)
light 1: EVQLLESGGGLVQPGGSLRLSCAASGFTFSSYAMNWVRQAPGKGLEWVSRIRSKYNNYATYYADSVKGRFTISRDDSKNTLYLQMNSLRAEDTAVYYCVRASNFPASYVSYFAYWGQGTLVTVSSASVAAPSVFIFPPSDEQLKSGTASVVCLLNNFYPREAKVQWKVDNALQSGNSQESVTEQDSKDSTYSLSSTLTLSKADYEKHKVYACEVTHQGLSSPVTKSFNRGEC
light 2: not shown
heavy 1: QVQLQQSGPGLLKPSQTLSLTCAISGDSVSSNRAAWNWIRQSPSRGLEWLGRTYYRSKWYNDYAVSVQGRITLIPDTSKNQFSLRLNSVTPEDTAVYYCASVRAVAPFDYWGQGVLVTVSSASTKGPSVFPLAPSSKSTSGGTAALGCLVEDYFPEPVTVSWNSGALTSGVHTFPAVLQSSGLYSLSSVVTVPSSSLGTQTYICNVNHKPSNTKVDEKVEPKSCDKTHTCPPCPAPEAAGGPSVFLFPPKPKDTLMISRTPEVTCVVVDVSHEDPEVKFNWYVDGVEVHNAKTKPREEQYNSTYRVVSVLTVLHQDWLNGKEYKCKVSNKALGAPIEKTISKAKGQPREPQVCTLPPSRDELTKNQVSLSCAVKGFYPSDIAVEWESNGQPENNYKTTPPVLDSDGSFFLVSKLTVDKSRWQQGNVFSCSVMHEALHNHYTQKSLSLSP
heavy 2: not shown
notes: 2+1 T cell bispecific: light chain 1 is the crossed VH(CD3)-CL chain, light chain 2 the HLA-G light chain (two copies, CLM-00046); also called HLA-G TCB
Consider B8, for which, in experiment [2], the binding result was “binds”. In addition, in experiment [3], the EC50 is 1.5 nM. In experiment [4], the “IFNgamma induction EC50 (nM), JEG3” value is 20 nM and the “IFNgamma induction EC50 (nM), SKOV3 HLA-G” value is 30 nM. In addition, in experiment [5], the “T cell mediated cytotoxicity induction EC50 (nM), JEG3 (Caspase 8 activation)” value was 12 nM and the “T cell mediated cytotoxicity induction EC50 (nM), SKOV3 HLA-G (Caspase 8 activation)” value came to 1.4 nM. In addition, the 50% effective concentration (EC50) in experiment [6] was 0.42 nM.

B9: P1AF7979 (HLA-G-0090-VL-S32P/CD3 V9) (bispecific antibody, human IgG1, kappa, L234A L235A)
light 1: EVQLVESGGGLVQPGGSLRLSCAASGYSFTGYTMNWVRQAPGKGLEWVALINPYKGVSTYNQKFKDRFTISVDKSKNTAYLQMNSLRAEDTAVYYCARSGYYGDSDWYFDVWGQGTLVTVSSASVAAPSVFIFPPSDEQLKSGTASVVCLLNNFYPREAKVQWKVDNALQSGNSQESVTEQDSKDSTYSLSSTLTLSKADYEKHKVYACEVTHQGLSSPVTKSFNRGEC
light 2: not shown
heavy 1: QVQLQQSGPGLLKPSQTLSLTCAISGDSVSSNRAAWNWIRQSPSRGLEWLGRTYYRSKWYNDYAVSVQGRITLIPDTSKNQFSLRLNSVTPEDTAVYYCASVRAVAPFDYWGQGVLVTVSSASTKGPSVFPLAPSSKSTSGGTAALGCLVEDYFPEPVTVSWNSGALTSGVHTFPAVLQSSGLYSLSSVVTVPSSSLGTQTYICNVNHKPSNTKVDEKVEPKSCDKTHTCPPCPAPEAAGGPSVFLFPPKPKDTLMISRTPEVTCVVVDVSHEDPEVKFNWYVDGVEVHNAKTKPREEQYNSTYRVVSVLTVLHQDWLNGKEYKCKVSNKALGAPIEKTISKAKGQPREPQVCTLPPSRDELTKNQVSLSCAVKGFYPSDIAVEWESNGQPENNYKTTPPVLDSDGSFFLVSKLTVDKSRWQQGNVFSCSVMHEALHNHYTQKSLSLSP
heavy 2: not shown
notes: as for B8
With B9, in experiment [2], the binding result is “binds”. The EC50 in experiment [3] stood at 0.58 nM. In experiment [4], the “IFNgamma induction EC50 (nM), JEG3” value was 29 nM and the “IFNgamma induction EC50 (nM), SKOV3 HLA-G” value was 16 nM. In experiment [5], the “T cell mediated cytotoxicity induction EC50 (nM), JEG3 (Caspase 8 activation)” value was 4.6 nM and the “T cell mediated cytotoxicity induction EC50 (nM), SKOV3 HLA-G (Caspase 8 activation)” value amounted to 1 nM. Moreover, the EC50 in experiment [6] stood at 0.36 nM.

B10: P1AF7978 (HLA-G-0090-VL-S32P/CD3 Clone 22 (Cl22)) (bispecific antibody, human IgG1, kappa, L234A L235A)
light 1: EVQLLESGGGLVQPGGSLRLSCAASGFQFSSYAMNWVRQAPGKGLEWVSRIRSKYNNYATYYADSVKGRFTISRDDSKNTLYLQMNSLRAEDTAVYYCVRHTTFPSSYVSYYGYWGQGTLVTVSSASVAAPSVFIFPPSDEQLKSGTASVVCLLNNFYPREAKVQWKVDNALQSGNSQESVTEQDSKDSTYSLSSTLTLSKADYEKHKVYACEVTHQGLSSPVTKSFNRGEC
light 2: not shown
heavy 1: QVQLQQSGPGLLKPSQTLSLTCAISGDSVSSNRAAWNWIRQSPSRGLEWLGRTYYRSKWYNDYAVSVQGRITLIPDTSKNQFSLRLNSVTPEDTAVYYCASVRAVAPFDYWGQGVLVTVSSASTKGPSVFPLAPSSKSTSGGTAALGCLVEDYFPEPVTVSWNSGALTSGVHTFPAVLQSSGLYSLSSVVTVPSSSLGTQTYICNVNHKPSNTKVDEKVEPKSCDKTHTCPPCPAPEAAGGPSVFLFPPKPKDTLMISRTPEVTCVVVDVSHEDPEVKFNWYVDGVEVHNAKTKPREEQYNSTYRVVSVLTVLHQDWLNGKEYKCKVSNKALGAPIEKTISKAKGQPREPQVCTLPPSRDELTKNQVSLSCAVKGFYPSDIAVEWESNGQPENNYKTTPPVLDSDGSFFLVSKLTVDKSRWQQGNVFSCSVMHEALHNHYTQKSLSLSP
heavy 2: not shown
notes: 2+1 T cell bispecific: light chain 1 is the crossed VH(CD3)-CL chain, light chain 2 the HLA-G light chain (two copies, CLM-00046); also called HLA-G-0090-VL-S32P/CD3 Cl22; HLA-G TCB
For B10, in experiment [2], the binding result was “binds”. In addition, the EC50 in experiment [3] is 0.15 nM. Moreover, in experiment [4], the “IFNgamma induction EC50 (nM), JEG3” value was found to be 2.2 nM and the “IFNgamma induction EC50 (nM), SKOV3 HLA-G” value worked out at 2.6 nM. Also, in experiment [5], the “T cell mediated cytotoxicity induction EC50 (nM), JEG3 (Caspase 8 activation)” value was determined as 2.6 nM and the “T cell mediated cytotoxicity induction EC50 (nM), SKOV3 HLA-G (Caspase 8 activation)” value is 1.36 nM. The EC50 in experiment [6] amounted to 0.12 nM.
